Assay results taken from paper PMC10866549 (Science Advances, 2024).

Biological target: T1, NRF2-His (his-tag mouse NRF2) (mouse, UniProt Q60795 1-597)
T1 sequence (looked up): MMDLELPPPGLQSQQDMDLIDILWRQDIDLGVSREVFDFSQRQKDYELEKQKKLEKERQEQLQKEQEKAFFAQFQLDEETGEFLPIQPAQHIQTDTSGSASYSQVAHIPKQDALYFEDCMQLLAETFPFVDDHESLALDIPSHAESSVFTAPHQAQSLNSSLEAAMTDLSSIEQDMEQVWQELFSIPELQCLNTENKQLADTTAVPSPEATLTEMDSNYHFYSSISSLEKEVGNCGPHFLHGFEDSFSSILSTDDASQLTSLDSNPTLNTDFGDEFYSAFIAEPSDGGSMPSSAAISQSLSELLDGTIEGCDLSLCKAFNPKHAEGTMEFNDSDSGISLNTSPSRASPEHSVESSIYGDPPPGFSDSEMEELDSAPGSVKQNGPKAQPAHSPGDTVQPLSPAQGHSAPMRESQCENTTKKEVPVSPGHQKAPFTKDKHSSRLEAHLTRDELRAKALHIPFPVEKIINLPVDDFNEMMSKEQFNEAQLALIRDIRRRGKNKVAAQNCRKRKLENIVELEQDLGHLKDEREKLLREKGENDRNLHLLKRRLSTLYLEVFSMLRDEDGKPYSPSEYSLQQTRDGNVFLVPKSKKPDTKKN
Assay: pull-down

B1: p53R245W-Flag (natural protein, mouse, UniProt P02340 1-390, looked up)
chain: MTAMEESQSDISLELPLSQETFSGLWKLLPPEDILPSPHCMDDLLLPQDVEEFFEGPSEALRVSGAPAAQDPVTETPGPVAPAPATPWPLSSFVPSQKTYQGNYGFHLGFLQSGTAKSVMCTYSPPLNKLFCQLAKTCPVQLWVSATPPAGSRVRAMAIYKKSQHMTEVVRRCPHHERCSDGDGLAPPQHLIRVEGNLYPEYLEDRQTFRHSVVVPYEPPEAGSEYTTIHYKYMCNSSCMGGMNWRPILTIITLEDSSGNLLGRDSFEVRVCACPGRDRRTEEENFRKKEVLCPELPPGSAKRALPTCTSASPPQKKKPLDGEYFTLKIRGRKRFEMFRELNEALELKDAHATEESGDSRAHSSYLKTKKGQSTSRHKKTMVKKVGPDSD
binding result: binds
